Data: patent publication US20160264649A1

How the values were obtained:
Assay in all cases: cell-based or functional assay
[1] = target: HIV-1 Env of isolate 92UG001 (subtype D) (HIV-1)
[2] = target: HIV-1 Env of isolate 92UG005 (subtype D) (HIV-1)
[3] = target: HIV-1 Env of isolate 92UG024 (subtype D) (HIV-1)
[4] = target: HIV-1 Env of isolate 92UG046 (subtype D) (HIV-1)
[5] = target: HIV-1 Env of isolate 92UG114 (subtype D) (HIV-1)
[6] = target: HIV-1 Env of isolate 98CN006 (subtype CRF08_BC) (HIV-1)
[7] = target: HIV-1 Env of isolate 98CN009 (subtype CRF07_BC) (HIV-1)
[8] = target: HIV-1 Env of isolate MGRM-D-001 (subtype D) (HIV-1)
[9] = target: HIV-1 Env of isolate MGRM-D-002 (subtype D) (HIV-1)
[10] = target: HIV-1 Env of isolate MGRM-D-003 (subtype D) (HIV-1)
[11] = target: HIV-1 Env of isolate MGRM-D-004 (subtype D) (HIV-1)
[12] = target: HIV-1 Env of isolate MGRM-D-005 (subtype D) (HIV-1)
[13] = target: HIV-1 Env of isolate MGRM-D-008 (subtype D) (HIV-1)
[14] = target: HIV-1 Env of isolate MGRM-D-011 (subtype D) (HIV-1)
[15] = target: HIV-1 Env of isolate MGRM-D-012 (subtype D) (HIV-1)
[16] = target: HIV-1 Env of isolate MGRM-D-013 (subtype D) (HIV-1)
[17] = target: HIV-1 Env of isolate MGRM-D-014 (subtype D) (HIV-1)
[18] = target: HIV-1 Env of isolate MGRM-D-016 (subtype D) (HIV-1)
[19] = target: HIV-1 Env of isolate MGRM-D-018 (subtype D) (HIV-1)
[20] = target: HIV-1 Env of isolate MGRM-D-019 (subtype D) (HIV-1)
[21] = target: HIV-1 Env of isolate MGRM-D-020 (subtype D) (HIV-1)
[22] = target: HIV-1 Env of isolate MGRM-D-021 (subtype D) (HIV-1)
[23] = target: HIV-1 Env of isolate MGRM-D-022 (subtype D) (HIV-1)
[24] = target: HIV-1 Env of isolate MGRM-D-024 (subtype D) (HIV-1)
[25] = target: HIV-1 Env of isolate MGRM-D-026 (subtype D) (HIV-1)
[26] = target: HIV-1 Env of isolate MGRM-D-028 (subtype D) (HIV-1)
[27] = target: HIV-1 Env of isolate MGRM-D-029 (subtype D) (HIV-1)
[28] = target: HIV-1 Env of isolate MGRM-F1-004 (subtype F) (HIV-1)
[29] = target: HIV-1 Env of isolate MGRM-F1-006 (subtype F) (HIV-1)
[30] = target: HIV-1 Env of isolate MGRM-F1-008 (subtype F) (HIV-1)
[31] = target: HIV-1 Env of isolate MGRM-F1-010 (subtype F) (HIV-1)
[32] = target: HIV-1 Env of isolate MGRM-F1-012 (subtype F) (HIV-1)
[33] = target: HIV-1 Env of isolate MGRM-F1-013 (subtype F) (HIV-1)
[34] = target: HIV-1 Env of isolate MGRM-F1-014 (subtype F) (HIV-1)
[35] = target: HIV-1 Env of isolate MGRM-F1-015 (subtype F) (HIV-1)
[36] = target: HIV-1 Env of isolate MGRM-F1-016 (subtype F) (HIV-1)
[37] = target: HIV-1 Env of isolate MGRM-F1-017 (subtype F) (HIV-1)
[38] = target: HIV-1 Env of isolate MGRM-F1-018 (subtype F) (HIV-1)
[39] = target: HIV-1 Env of isolate MGRM-F1-020 (subtype F) (HIV-1)
[40] = target: HIV-1 Env of isolate MGRM-F1-021 (subtype F) (HIV-1)
[41] = target: HIV-1 Env of isolate MGRM-F1-022 (subtype F) (HIV-1)
[42] = target: HIV-1 Env of isolate MGRM-F1-023 (subtype F) (HIV-1)
[43] = target: HIV-1 Env of pseudovirus isolate MGRM-G-001 (subtype G) (HIV-1)
[44] = target: HIV-1 Env of pseudovirus isolate MGRM-G-004 (subtype G) (HIV-1)
[45] = target: HIV-1 Env of pseudovirus isolate MGRM-G-006 (subtype G) (HIV-1)
[46] = target: HIV-1 Env of pseudovirus isolate MGRM-G-009 (subtype G) (HIV-1)
[47] = target: HIV-1 Env of pseudovirus isolate MGRM-G-011 (subtype G) (HIV-1)
[48] = target: HIV-1 Env of pseudovirus isolate MGRM-G-013 (subtype G) (HIV-1)
[49] = target: HIV-1 Env of pseudovirus isolate MGRM-G-014 (subtype G) (HIV-1)
[50] = target: HIV-1 Env of pseudovirus isolate MGRM-G-015 (subtype G) (HIV-1)
[51] = target: HIV-1 Env of pseudovirus isolate MGRM-G-016 (subtype G) (HIV-1)
[52] = target: HIV-1 Env of pseudovirus isolate MGRM-G-017 (subtype G) (HIV-1)
[53] = target: HIV-1 Env of pseudovirus isolate MGRM-G-019 (subtype G) (HIV-1)
[54] = target: HIV-1 Env of pseudovirus isolate MGRM-G-024 (subtype G) (HIV-1)
[55] = target: HIV-1 Env of pseudovirus isolate MGRM-G-025 (subtype G) (HIV-1)
[56] = target: HIV-1 Env of pseudovirus isolate MGRM-G-027 (subtype G) (HIV-1)
[57] = target: HIV-1 Env of pseudovirus isolate MGRM-G-028 (subtype G) (HIV-1)
[58] = target: envelope of aMLV pseudovirus (negative control)

B1: PGT-126 (antibody, V domains shown)
VH: QPQLQESGPGLVEASETLSLTCTVSGDSTAACDYFWGWVRQPPGKGLEWIGGLSHCAGYYNTGWTYHNPSLKSRLTISLDTPKNQVFLKLNSVTAADTAIYYCARFDGEVLVYHDWPKPAWVDLWGRGTLVTVSS
VL: QSALTQPPSASGSPGQSISISCTGTSNRFVSWYQQHPGKAPKLVIYGVNKRPSGVPDRFSGSKSGNTASLTVSGLQTDDEAVYYCSSLVGNWDVIFGGGTKLTVL
- IC50 (neutralization) [1]: > 50 µg/mL
- IC50 (neutralization) [2]: 0.037 µg/mL
- IC50 (neutralization) [3]: > 50 µg/mL
- IC50 (neutralization) [4]: > 50 µg/mL
- IC50 (neutralization) [5]: 0.038 µg/mL
- IC50 (neutralization) [6]: 0.046 µg/mL
- IC50 (neutralization) [7]: 0.019 µg/mL
- IC50 (neutralization) [8]: 0.084 µg/mL
- IC50 (neutralization) [9]: 0.039 µg/mL
- IC50 (neutralization) [10]: 0.021 µg/mL
- IC50 (neutralization) [11]: > 50 µg/mL
- IC50 (neutralization) [12]: 0.792 µg/mL
- IC50 (neutralization) [13]: 43.1 µg/mL
- IC50 (neutralization) [14]: 0.009 µg/mL
- IC50 (neutralization) [15]: > 50 µg/mL
- IC50 (neutralization) [16]: > 50 µg/mL
- IC50 (neutralization) [17]: 0.03 µg/mL
- IC50 (neutralization) [18]: > 50 µg/mL
- IC50 (neutralization) [19]: 0.009 µg/mL
- IC50 (neutralization) [20]: > 50 µg/mL
- IC50 (neutralization) [21]: 0.023 µg/mL
- IC50 (neutralization) [22]: 0.047 µg/mL
- IC50 (neutralization) [23]: > 50 µg/mL
- IC50 (neutralization) [24]: 0.376 µg/mL
- IC50 (neutralization) [25]: > 50 µg/mL
- IC50 (neutralization) [26]: > 50 µg/mL
- IC50 (neutralization) [27]: > 50 µg/mL
- IC50 (neutralization) [28]: 0.063 µg/mL
- IC50 (neutralization) [29]: 0.078 µg/mL
- IC50 (neutralization) [30]: > 50 µg/mL
- IC50 (neutralization) [31]: > 50 µg/mL
- IC50 (neutralization) [32]: 0.3 µg/mL
- IC50 (neutralization) [33]: > 50 µg/mL
- IC50 (neutralization) [34]: > 50 µg/mL
- IC50 (neutralization) [35]: > 50 µg/mL
- IC50 (neutralization) [36]: > 50 µg/mL
- IC50 (neutralization) [37]: > 50 µg/mL
- IC50 (neutralization) [38]: 14.9 µg/mL
- IC50 (neutralization) [39]: > 50 µg/mL
- IC50 (neutralization) [40]: > 50 µg/mL
- IC50 (neutralization) [41]: > 50 µg/mL
- IC50 (neutralization) [42]: 0.009 µg/mL
- IC50 [43]: 0.038 µg/mL
- IC50 [44]: > 50 µg/mL
- IC50 [45]: > 50 µg/mL
- IC50 [46]: > 50 µg/mL
- IC50 [47]: 7.32 µg/mL
- IC50 [48]: 48.8 µg/mL
- IC50 [49]: 0.009 µg/mL
- IC50 [50]: > 50 µg/mL
- IC50 [51]: > 50 µg/mL
- IC50 [52]: > 50 µg/mL
- IC50 [53]: 0.018 µg/mL
- IC50 [54]: > 50 µg/mL
- IC50 [55]: 17.1 µg/mL
- IC50 [56]: 0.875 µg/mL
- IC50 [57]: 0.012 µg/mL
- IC50 [58]: > 50 µg/mL

B2: PGT-127 (antibody, V domains shown)
VH: QPQLQESGPGLVEASETLSLTCTVSGDSTGRCNYFWGWVRQPPGKGLEWIGSLSHCRSYYNTDWTYHNPSLKSRLTISLDTPKNQVFLRLTSVTAADTATYYCARFGGEVLVYRDWPKPAWVDLWGRGTLVVTVS
VL: QSALTQPPSASGSPGQSITISCTGTSNNFVSWYQQYPGKAPKLVIYEVNKRPSGVPDRFSGSKSGSTASLTVSGLQADDEGVYYCSSLVGNWDVIFGGGTKLTVL
- IC50 (neutralization) [1]: > 50 µg/mL
- IC50 (neutralization) [2]: 1.11 µg/mL
- IC50 (neutralization) [3]: > 50 µg/mL
- IC50 (neutralization) [4]: > 50 µg/mL
- IC50 (neutralization) [5]: 7.09 µg/mL
- IC50 (neutralization) [6]: 0.067 µg/mL
- IC50 (neutralization) [7]: 0.09 µg/mL
- IC50 (neutralization) [8]: 2.23 µg/mL
- IC50 (neutralization) [9]: 0.6 µg/mL
- IC50 (neutralization) [10]: 0.029 µg/mL
- IC50 (neutralization) [11]: > 50 µg/mL
- IC50 (neutralization) [12]: 6.04 µg/mL
- IC50 (neutralization) [13]: > 50 µg/mL
- IC50 (neutralization) [14]: 0.015 µg/mL
- IC50 (neutralization) [15]: > 50 µg/mL
- IC50 (neutralization) [16]: > 50 µg/mL
- IC50 (neutralization) [17]: 0.393 µg/mL
- IC50 (neutralization) [18]: > 50 µg/mL
- IC50 (neutralization) [19]: 0.021 µg/mL
- IC50 (neutralization) [20]: > 50 µg/mL
- IC50 (neutralization) [21]: 0.015 µg/mL
- IC50 (neutralization) [22]: 0.056 µg/mL
- IC50 (neutralization) [23]: > 50 µg/mL
- IC50 (neutralization) [24]: 1.95 µg/mL
- IC50 (neutralization) [25]: > 50 µg/mL
- IC50 (neutralization) [26]: > 50 µg/mL
- IC50 (neutralization) [27]: > 50 µg/mL
- IC50 (neutralization) [28]: 0.068 µg/mL
- IC50 (neutralization) [29]: 7.17 µg/mL
- IC50 (neutralization) [30]: > 50 µg/mL
- IC50 (neutralization) [31]: > 50 µg/mL
- IC50 (neutralization) [32]: > 50 µg/mL
- IC50 (neutralization) [33]: > 50 µg/mL
- IC50 (neutralization) [34]: > 50 µg/mL
- IC50 (neutralization) [35]: > 50 µg/mL
- IC50 (neutralization) [36]: > 50 µg/mL
- IC50 (neutralization) [37]: > 50 µg/mL
- IC50 (neutralization) [38]: 3.59 µg/mL
- IC50 (neutralization) [39]: > 50 µg/mL
- IC50 (neutralization) [40]: > 50 µg/mL
- IC50 (neutralization) [41]: > 50 µg/mL
- IC50 (neutralization) [42]: 0.119 µg/mL
- IC50 [43]: 0.113 µg/mL
- IC50 [44]: > 50 µg/mL
- IC50 [45]: > 50 µg/mL
- IC50 [46]: > 50 µg/mL
- IC50 [47]: > 50 µg/mL
- IC50 [48]: 7.7 µg/mL
- IC50 [49]: 0.009 µg/mL
- IC50 [50]: > 50 µg/mL
- IC50 [51]: > 50 µg/mL
- IC50 [52]: > 50 µg/mL
- IC50 [53]: 0.429 µg/mL
- IC50 [54]: > 50 µg/mL
- IC50 [55]: 19.3 µg/mL
- IC50 [56]: > 50 µg/mL
- IC50 [57]: 0.032 µg/mL
- IC50 [58]: > 50 µg/mL
